Data published in article PMC12623983.
Where a chain is given by its changes, count along the chain named. Numbers in names are those of the source. One block for each binder: values may come before it.

Molecular target: ribosomes from HEK293 cells (80S ribosomes, empty ribosomes), P62750;P62906
Experiment: co-sedimentation assay with immunoblot quantification
Settings: chain shown with the change, three independent replicates, read off a plot; for ratio to parent: NMT2 alone with ribosomes (no NAC), parent: est. 1.0; for response (normalized intensity): NMT2 with ribosomes in the presence of NAC, parent: est. 2.2

- ratio to parent: 0.27
- response (normalized intensity): 0.3
B1: human NMT2 (N-myristoyltransferase 2), wild type, O60551 R306E; R324E; K327E (protein)
chain: MAEDSESAASQQSLELDDQDTCGIDGDNEEETEHAKGSPGGYLGAKKKKKKQKRKKEKPNSGGTKSDSASDSQEIKIQQPSKNPSVPMQKLQDIQRAMELLSACQGPARNIDEAAKHRYQFWDTQPVPKLDEVITSHGAIEPDKDNVRQEPYSLPQGFMWDTLDLSDAEVLKELYTLLNENYVEDDDNMFRFDYSPEFLLWALRPPGWLLQWHCGVRVSSNKKLVGFISAIPANIRIYDSVKKMVEINFLCVHKKLRSKRVAPVLIREITRRVNLEGIFQAVYTAGVVLPKPIATCRYWHRSLNPEKLVEVKFSHLSRNMTLQETMELYRLPDVTKTSGLRPMEPKDIKSVRELINTYLKQFHLAPVMDEEEVAHWFLPREHIIDTFVVESPNGKLTDFLSFYTLPSTVMHHPAHKSLKAAYSFYNIHTETPLLDLMSDALILAKSKGFDVFNALDLMENKTFLEKLKFGIGDGNLQYYLYNWRCPGTDSEKVGLVLQ

- ratio to parent: 0.35
- response (normalized intensity): 0.85
B2: human NMT2 (N-myristoyltransferase 2), wild type, O60551 R306E (protein)
chain: B1 chain with E324R, E327K

- ratio to parent: 0.32
- response (normalized intensity): 0.45
B3: human NMT2 (N-myristoyltransferase 2), wild type, O60551 R324E; K327E (protein)
chain: B1 chain with E306R
